Source: patent publication US20200392244A1 (CRESCENDO BIOLOGICS, published 2020)

Assays:
[1] = biological target: T1, human PSMA on cells (CHO human PSMA, DU145 PSMA, LNCaP) (human, UniProt Q04609 1-750); assay: cell-based or functional assay
[2] = biological target: T2, cynomolgus PSMA on CHO cells (cynomolgus, UniProt A0A2K5VNZ0 1-750); assay: cell-based or functional assay
[3] = biological target: T1, human PSMA on cells (CHO human PSMA, …); assay: FMAT Mirrorball direct cell binding of purified His-tagged VH on DU145 cells expressing PSMA [panel Du145 PSMA]
[4] = biological target: T1, human PSMA on cells (CHO human PSMA, …); assay: FMAT Mirrorball direct cell binding of purified His-tagged VH on CHO cells expressing human PSMA [upper left panel huPSMA CHO]
[5] = biological target: T1, human PSMA on cells (CHO human PSMA, …); assay: FMAT Mirrorball direct cell binding of purified His-tagged VH on LNCaP cells [panel LNCap]
[6] = biological target: T2, cynomolgus PSMA on CHO cells; assay: cell-based or functional assay; remark: listed apart in the source
[7] = biological target: T3, recombinant human PSMA (R&D, cat. no. 4234-ZN) (human, UniProt Q04609 44-750); assay: HTRF binding assay with 3 nM biotinylated PSMA; VH 7 days in cynomolgus serum at 37 C
T3 construct: Bought protein; also called rhPSMA; Recombinant PMSA

[8] = biological target: T2, cynomolgus PSMA on CHO cells; assay: FMAT screen, Cyno PSMA CHO cells

T1 sequence (Q04609 whole entry): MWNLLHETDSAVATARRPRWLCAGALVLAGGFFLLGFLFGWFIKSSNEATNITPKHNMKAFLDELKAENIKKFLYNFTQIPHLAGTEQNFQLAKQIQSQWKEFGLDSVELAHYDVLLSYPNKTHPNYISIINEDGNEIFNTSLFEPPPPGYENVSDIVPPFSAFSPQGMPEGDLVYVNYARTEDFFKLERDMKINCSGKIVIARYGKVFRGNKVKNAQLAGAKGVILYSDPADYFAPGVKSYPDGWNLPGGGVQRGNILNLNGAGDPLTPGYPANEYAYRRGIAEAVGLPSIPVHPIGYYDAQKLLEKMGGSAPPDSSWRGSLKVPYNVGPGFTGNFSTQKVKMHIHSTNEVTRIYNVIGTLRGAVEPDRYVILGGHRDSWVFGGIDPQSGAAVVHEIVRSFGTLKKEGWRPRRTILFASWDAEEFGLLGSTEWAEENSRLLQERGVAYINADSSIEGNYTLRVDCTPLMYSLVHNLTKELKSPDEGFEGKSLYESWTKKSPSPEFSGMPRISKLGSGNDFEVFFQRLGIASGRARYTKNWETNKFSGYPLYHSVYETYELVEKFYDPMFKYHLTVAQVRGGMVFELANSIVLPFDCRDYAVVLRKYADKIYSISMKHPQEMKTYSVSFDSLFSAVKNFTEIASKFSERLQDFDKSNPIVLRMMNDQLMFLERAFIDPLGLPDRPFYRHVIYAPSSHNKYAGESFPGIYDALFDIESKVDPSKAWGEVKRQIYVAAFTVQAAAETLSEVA
T3 sequence (Q04609 44-750 limits assumed): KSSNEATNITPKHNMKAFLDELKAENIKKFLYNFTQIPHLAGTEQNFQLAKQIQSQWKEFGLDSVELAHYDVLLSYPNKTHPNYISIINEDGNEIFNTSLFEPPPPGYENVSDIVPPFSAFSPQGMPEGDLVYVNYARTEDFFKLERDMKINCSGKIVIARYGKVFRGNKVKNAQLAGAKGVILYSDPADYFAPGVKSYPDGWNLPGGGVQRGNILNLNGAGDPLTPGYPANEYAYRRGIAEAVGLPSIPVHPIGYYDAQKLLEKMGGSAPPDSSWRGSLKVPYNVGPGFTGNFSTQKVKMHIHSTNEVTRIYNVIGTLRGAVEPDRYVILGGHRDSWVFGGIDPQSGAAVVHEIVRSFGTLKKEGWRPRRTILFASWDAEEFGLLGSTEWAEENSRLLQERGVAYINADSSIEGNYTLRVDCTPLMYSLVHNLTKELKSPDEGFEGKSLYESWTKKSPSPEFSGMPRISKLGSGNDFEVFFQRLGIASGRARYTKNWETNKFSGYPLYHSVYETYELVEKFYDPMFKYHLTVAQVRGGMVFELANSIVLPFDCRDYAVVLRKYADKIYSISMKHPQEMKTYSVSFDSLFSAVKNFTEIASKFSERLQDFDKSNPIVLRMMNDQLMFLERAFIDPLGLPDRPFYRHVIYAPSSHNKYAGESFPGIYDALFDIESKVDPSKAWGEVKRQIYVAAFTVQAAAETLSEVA

B1: single VH domain antibody 2.1 (VHH)
VHH: EVQLVESGGGVVQPGRSLRLSCAASGFSFSGYGMHWVRQAPGKGLEWVAYISYDGSNKYYADSVKGRFTISRDNSKNTLYLQMNSLRAEDTAVYYCAKDPAWGLRLGESSSYDFDIWGQGTMVTVSS
IC50 (read off the curve), His-ZAP killing [1]: ~0.04 nM | IC50 (read off the curve), His-ZAP killing [2]: ~0.1 nM

B2: single VH domain antibody 2.13 (VHH)
VHH: EVQLVESGGGVVQPGRSLRLSCAASGFSFSGYGLHWVRQAPGKGLEWVAYISYDASNKYYADNVKGRFTISRDNSKNTLYLQMNSLRAEDTAVYYCAKDPAWGLRLGESSSYDFDIWGQGTMVTVSS
notes: variant of 2.1; human single VH domain; C-terminal His(-myc) tag not included
EC50 (read off the curve) [3]: ~0.2 nM | EC50 (read off the curve) [4]: ~0.1 nM

B3: single VH domain antibody 2.12 (VHH)
VHH: EVQLVESGGGVVQPGRSLRLSCAASGFSFSGYGMHWVRQAPGKGLEWVAYISYDKSNKYYADKVKGRFTISRDNSKNTLYLQMNSLRAEDTAVYYCAKDPAWGLRLGESSSYDFDIWGQGTMVTVSS
notes: as for B2
EC50 (read off the curve) [5]: ~0.03 nM | EC50 (read off the curve) [3]: ~0.2 nM | EC50 (read off the curve) [4]: ~0.1 nM

B4: single VH domain antibody 5.1 (VHH)
VHH: QVQLVESGGGVVQPGRSLRLSCAASGFTFNNYGMHWVRQAPGKGLEWVAIISYDGNTKYYTDSVKGRFTISRDNSKNTLYLQMNSLRVEDTAVYYCAKGLWPSDVWGQGTTVTVSS
EC50 (read off the curve), pHrodo Green internalisation [6]: ~2e-09 M

B5: 3.2 (VHH)
VHH: EVQLVESGGGVVQPGRSLRLSCAASGFPLISYGMNWVRQAPGKGLDWVAFISYDGSNKYYADSVKGRFTISKDNSKNTLYLQMNSLRAEDTAVYYCAKDRIVGARVPDAFDIWGQGTMVTVSS
EC50 (read off the curve), pHrodo Green internalisation [6]: ~1e-09 M

B6: single VH domain antibody 3.1 (VHH)
VHH: EVQLVESGGGVVQPGRSLRLSCAASGFPLISYGMHWVRQAPGKGLEWVAFMTYDGSNRYYADSVKGRFTISRDNSKNTLYLQMNSLRDEDTALYYCARDRIVGGRVPDAFDIWGQGTMVTVSS
notes: human single VH domain; C-terminal His(-myc) tag not included; also called VH3.1; family 3 parent
EC50 (read off the curve) [7]: ~1 nM

B7: single VH domain antibody 13.1 (VHH)
VHH: EVQLVESGGGSVQPGGSLRLSCAASGFTFSDYWMTWVRQVPGKGLEWVANIKQDGSEKYYVDSVKGRFTISRDNAKNSLYLQMNSLRAEDTAVYYCARDRGGAVALYHNGMDMGGQGTTVTVSS
notes: human single VH domain; C-terminal His(-myc) tag not included; also called family 13
binding result [8]: no binding
